Laboratory results from the supplement of paper PMC7877785.
± gives the uncertainty stated by the source.

Assay: self-splicing fitness, log relative to wild type (ln ratio); higher = more splicing; Tetrahymena group I intron in knt gene, E. coli kanamycin selection, DiMSum; sequences stand for … in CUCUCU…GGAGGGAAAAGUUAUCAGGCAUGCACCUGGUAGCUAGUCUUUAAACCAAUAGAUUGCAUCGGUUUAAAAGGCAAGACCGUCAAAUUGCGGGAAAGGGGUCAACAGCCGUUCAGUACCAAGUCUCAGGGGAAACUUUGAGAUGGCCUUGCAAAGGGUAUGGUAAUAAGCUGACGGACAUGGUCCUAACCACGCAGCCAAGUCCUAAGUCAACAGAUCUUCUGUUGAUAUGGAUGCAGUUCACAGACUAAAUGUCGGUCGGGGAAGAUGUAUUCUUCUCAUAAGAUAUAGUCGGACCUCUCCUUAAUGGGAGCUAGCGGAUGAAGUGAUGCAACACUGGAGCCGCUGGGAACUAAUUUGUAUGCGAAAGUAUAUUGAUUAGUUUUGGAGUACUCGUGGUCG
Method in brief: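 Colonies from six replicate transformations of E. coli BL21(DE3) were pooled and amplicon-sequenced on an Illumina HiSeq 2500. The library placed an intron with all eight P1ex-region nucleotides randomised inside the knt kanamycin-resistance gene on pET-22b(+), and cells grew overnight at 37°C or 30°C on LB agar with or without 25 μg/mL kanamycin (plus 100 μg/mL carbenicillin, 50 μM IPTG, 0.2% rhamnose). Fitness is the DiMSum error-weighted combination of wild-type-normalised replicate fold changes, kanamycin versus none.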

## GUCCAGCAAUAUUACGCAAG
30 °C
  self-splicing fitness (ln): -1.32 ± 0.12
37 °C
  self-splicing fitness (ln): -1.28 ± 0.14

## AAAAAGCAAUAUUACGGGAU
30 °C
  self-splicing fitness (ln): -1.62 ± 0.075
37 °C
  self-splicing fitness (ln): -1.23 ± 0.086

## ACACAGCAAUAUUACGAUUG
30 °C
  self-splicing fitness (ln): -2.22 ± 0.084
37 °C
  self-splicing fitness (ln): -0.711 ± 0.09

## UGGGAGCAAUAUUACGGCGU
37 °C
  self-splicing fitness (ln): -0.706 ± 0.28

## GAAAAGCAAUAUUACGUGGG
30 °C
  self-splicing fitness (ln): -3.69 ± 0.13
37 °C
  self-splicing fitness (ln): -1.29 ± 0.11

## GAGCAGCAAUAUUACGUAAA
30 °C
  self-splicing fitness (ln): -1.89 ± 0.14
37 °C
  self-splicing fitness (ln): -1.13 ± 0.14

## AGACAGCAAUAUUACGUUAA
30 °C
  self-splicing fitness (ln): -3.26 ± 0.14
37 °C
  self-splicing fitness (ln): -1.27 ± 0.087

## CUAAAGCAAUAUUACGCCCG
30 °C
  self-splicing fitness (ln): 0.465 ± 0.11
37 °C
  self-splicing fitness (ln): -0.0373 ± 0.12

## GCACAGCAAUAUUACGGCGG
30 °C
  self-splicing fitness (ln): -3.29 ± 0.19
37 °C
  self-splicing fitness (ln): -2.78 ± 0.25

## UGGGAGCAAUAUUACGACGA
37 °C
  self-splicing fitness (ln): -0.296 ± 0.36

## GCGAAGCAAUAUUACGUAUA
30 °C
  self-splicing fitness (ln): -2.18 ± 0.29
37 °C
  self-splicing fitness (ln): 0.188 ± 0.43

## UGUAAGCAAUAUUACGAGUU
30 °C
  self-splicing fitness (ln): -2.78 ± 0.13
37 °C
  self-splicing fitness (ln): -2.69 ± 0.23

## GGUCAGCAAUAUUACGUUUA
30 °C
  self-splicing fitness (ln): -1.23 ± 0.1
37 °C
  self-splicing fitness (ln): -0.167 ± 0.1

## ACCAAGCAAUAUUACGAUGA
30 °C
  self-splicing fitness (ln): -1.97 ± 0.1
37 °C
  self-splicing fitness (ln): -1.36 ± 0.11

## UCCGAGCAAUAUUACGGCUG
30 °C
  self-splicing fitness (ln): -2.83 ± 0.19
37 °C
  self-splicing fitness (ln): -1.6 ± 0.29

## AAAAAGCAAUAUUACGUCAC
30 °C
  self-splicing fitness (ln): -4.29 ± 0.26
37 °C
  self-splicing fitness (ln): -1.27 ± 0.16

## UAGGAGCAAUAUUACGGCAA
37 °C
  self-splicing fitness (ln): -1.07 ± 0.2

## GAAGAGCAAUAUUACGGACG
30 °C
  self-splicing fitness (ln): -2.59 ± 0.27

## ACGGAGCAAUAUUACGUAAA
37 °C
  self-splicing fitness (ln): -1.27 ± 0.35

## UAAUAGCAAUAUUACGGCCU
30 °C
  self-splicing fitness (ln): -1.16 ± 0.14
37 °C
  self-splicing fitness (ln): -0.77 ± 0.19

## GUGGAGCAAUAUUACGAGCC
37 °C
  self-splicing fitness (ln): -1.59 ± 0.35

## CCAUAGCAAUAUUACGCACA
30 °C
  self-splicing fitness (ln): -3.14 ± 0.28
37 °C
  self-splicing fitness (ln): -1.45 ± 0.27

## UCUCAGCAAUAUUACGAGCU
30 °C
  self-splicing fitness (ln): -1.48 ± 0.086
37 °C
  self-splicing fitness (ln): -0.552 ± 0.12

## UGGCAGCAAUAUUACGGUUA
30 °C
  self-splicing fitness (ln): -0.000429 ± 0.076
37 °C
  self-splicing fitness (ln): 0.0782 ± 0.092

## CUGAAGCAAUAUUACGCUUU
30 °C
  self-splicing fitness (ln): -3.4 ± 0.31
37 °C
  self-splicing fitness (ln): -3.78 ± 0.42

## UAGAAGCAAUAUUACGCACC
30 °C
  self-splicing fitness (ln): -2.13 ± 0.27
37 °C
  self-splicing fitness (ln): -1.44 ± 0.25

## GGCGAGCAAUAUUACGCUAU
30 °C
  self-splicing fitness (ln): -2.55 ± 0.21
37 °C
  self-splicing fitness (ln): -1.11 ± 0.18

## AUCUAGCAAUAUUACGUAAU
30 °C
  self-splicing fitness (ln): -1.28 ± 0.098
37 °C
  self-splicing fitness (ln): -1.37 ± 0.12

## GUAAAGCAAUAUUACGAUGA
30 °C
  self-splicing fitness (ln): -0.0816 ± 0.064
37 °C
  self-splicing fitness (ln): -0.318 ± 0.068

## GACAAGCAAUAUUACGCUCG
30 °C
  self-splicing fitness (ln): -1.47 ± 0.17
37 °C
  self-splicing fitness (ln): -0.891 ± 0.21

## UUGCAGCAAUAUUACGCACG
30 °C
  self-splicing fitness (ln): -1.2 ± 0.13
37 °C
  self-splicing fitness (ln): -1.24 ± 0.12

## CCUAAGCAAUAUUACGCGCA
30 °C
  self-splicing fitness (ln): -3.25 ± 0.24
37 °C
  self-splicing fitness (ln): -2.2 ± 0.19

## CAAUAGCAAUAUUACGCUAU
30 °C
  self-splicing fitness (ln): -2.69 ± 0.33

## CUCUAGCAAUAUUACGUCUA
30 °C
  self-splicing fitness (ln): -2.31 ± 0.25
37 °C
  self-splicing fitness (ln): -2.88 ± 0.24

## AUCCAGCAAUAUUACGAAAA
30 °C
  self-splicing fitness (ln): -1.79 ± 0.12
37 °C
  self-splicing fitness (ln): -1.02 ± 0.12
